Assay: yeast display, Sf9 membrane polyspecificity reagent, FACS + sequencing; frameworks hold sequencing errors
Procedure, shortened: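 Synthetic nanobody libraries on Saccharomyces cerevisiae BJ5465 were galactose-induced for 36–48 hours, stained 1 hour at 4 °C with 10% biotinylated, detergent-solubilized Sf9 membrane reagent and enriched on streptavidin microbeads. FACS then separated cells into low and high (top ~1%) gates by anti-HA (expression) and streptavidin (reagent binding) fluorescence. Genes were colony-PCR amplified, MiSeq 2 × 250 sequenced and CDR-length filtered. A clone's polyreactivity label is that of its gate of origin.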

Sequence | polyreactivity (PSR sort gate)
QVQLVESGGGLVQAGGSLRLSCAASGRTFTVYAMGWYRQAPGKEREFVATISRSGGSTYYADSVKGRFTISRDNAKNTVYLQMNSLKPEDTAVYYCAARRSGRKYDYWGQGTQVTVSS | high polyreactivity
QVQLVESGGGLVQAGGSLRLSCAASGRIFWGNAMGWYRQAPGKERELVAAISSSGGSTYYADSVKGRFTISRDNAKNTVYLQMNSLKPEDTAVYYCAARYPTYYYRYDYWGQGTQVTVSS | high polyreactivity
QVQLVESGGGLVQAGGSLRISCAASGSTFFKNAMGWYRQAPGKERELVAAITWSGDRTYADSVKGRFTISRDNAKNTVYLQMNSLKPEDTAVYYCNVDITGYDDDYWGQGPQVTVSS | low polyreactivity
QVQLVESGGGLVQAGGSLRLSSAASGRTFYSNAMGWYRQAPGKEREFVAAINWSGTSTYADSVKGRFTISRDNAKNTVYLQMNSLKPEDTAVYYCAKTYRTLVRYWGQPFGYWGQGTQVTVSS | high polyreactivity
QFQLVESGGGLVQAGGSLSLSCAASGSTFVWYAMGWYRPAPGKERELVAAINFGGTTYYADSVKGRFTISRDNAKNTVYLQMNSLKPEDNAVYYCATEYDYGYWYPDGWVIFDYWVQGTQVTVSS | low polyreactivity
QVQLVESGGGLFQAGGSLRLSCAPSGRISNKYAMGWYRQAPGKERELVAAISYSGGTTYYADSVKGRFTISRDNAKNTVYLQMNSLKPEDTAGYYCAREWTKGYGYYWGYYWGQGTQVTASS | low polyreactivity
QVQLVESGGGLVQAGGSLRLSCAASGSILYSNAMGWYRQAPGKERELVAVITWGGGSTYYADSVKGRFTISRDNAKNTVFLQMNSLKPEDTAVYYCAARARRGLRAYVELDYWGQGTQVTVSS | low polyreactivity
QVQLVESGGGLVQAGGSLRFSCAATGSISYGYAMGWYKQAHGKERELVAAISRRGGTTYFADSVKGRFTISRDNAKNSLYLQINSLKAEDTAVYYCNALLPDLAQYDYWGQGTQVTVSS | high polyreactivity
QVQLVESGGGLVQAGGSLRLSCAASGSIFAYYAMGWYRQAPGKERELVAAISRRGATTYYSDSVKGRFTISRDNAKNTVYLQMNSLKPEDTAVYYCAARTPYWTSYLRYWGQGTQVTVSS | high polyreactivity
QVQLVESGGGLVQAGGSLRLSCAPSGSTFYYYAMGWYRQAPGKERELVAAITWSGGSTRYADSVKGRFTISRDNAKNTVYLQMKSLKPEDTAVYYCAAYYRKTGFEYWGQGSQVTVSS | high polyreactivity
QVQLVESGGGLVQAGGRLRLSCAASGRIFPVYTMGWYRQAPGKERELVAAISGNGASTYYADSVKGRFTISRDNAKNTVYLQMNSLKPEDTAVYYCAAYFYYWGSTFVRYEYWGQGTQVTVSS | high polyreactivity
QVQLVESGGGLVQAGGSLRLSCAASGSTFWVNVMGWYRQAPGKERELVAAITTGSSPYYADSVKGRFTISRDNAKNTVYLQMNSLKPEDTAVYYCNVFQGTRYGYWGQGTQVTVSS | low polyreactivity
QVQLVESGGGLVEAGGSLRLSCAASGNIFVNYAMEWYRQAPGKERELVAAISWSGGSTYYADSVKGRFTISRDNAKNTVYLQINRLKAEDTAVYYCAADYTGHLYYYWVQGTQVTVSS | low polyreactivity
QVQLVESGGGLVQAGGSLRLSCAASGFTFQWYAMGWYRQAPGKERELVAGITSGASTNYADSVKGRFTISRDNAKNNVYLQMNSLKPEDTAVYYCAAGYKSRYYRNSGYYWGQGTQVTVSS | high polyreactivity
QVQLVESGGGLVQAGGSLRLSCAASGSTLGRNAMGWYRQAPGKERELVAGIDGSAGSTYYADSVKGRFTISRDNAKNTVYLQMNSLKPEDTAVYYCNADVIDLDYDYWGQGTQVTVSS | low polyreactivity
QVQRVESGGGLVQAGGSRRLSCAASGSIFSAYAMGWYRQAPGKEREFVAAITRRGGNTYYADSVKGRFTISRDNAKNTVYLQMNSLKPDDTAVYYCAADAGGGPFDYSGQGTQVTVSS | low polyreactivity
QVQLVESGGGLVQAGGSLRLSCAASGSISKINAMGWYRQAPGKERELVAAINTGDSTYYADSVKGRFTISRDNAKNTVYLQMNSLKPEDTAVYYCAAEGSPTGYDYWGQGTQVTVSS | low polyreactivity
QVQLVESGGGLVQAGGSLRLTCAASGSTFWAYAMGWYRQAPGKERELVAAITTGGGRTFYADSVKGRFTISRDNAKNTVYLQMNSLIPEDTAVYYCAAVSQSYRMYYWGQGTQVTVSS | low polyreactivity
QVQLVESGGGLVQAGGSLRLSCAASGSIFSKNAMGWYRQAPGKERELLAAITLNGGSTYYADSVKGRFTNSRDNAKNTVYLQMNSLKPEDTSVFYFAKSDRQWWGYYYQFDYLGQGTQVTVSS | low polyreactivity
QVQLVESGGGLVQAGGSLRLSCAASGRMFKYSDMGWYRQAPGKERALVAGISISGSTSYADSVKGRFTISRDNAKNTVYLQMNSLKPEDTAVYYCAADSRGGYPSLYEYDYWGQGTQETVSS | low polyreactivity
QVQLVESGGGLVQAGGSLRLSCAASGSTFFIWNAMGWYRQAPGKERELVAGITRGGSTNYADSVKGRFTISRDNAKNTVYLQMNSLKPEDTAVYYCAADGTVVYGYDYWGQGTQVTVSS | low polyreactivity
QVQLVESGGGLVQAGGSLRLSCAASGSIFRGYAMGWYRQAPGKERELVAAINTSGGRTYYADSVKGRFTISRDNAKNTVYLQMNSLKPEDTAVYYCATEYYQAKREDYWGQGTQVTVSS | high polyreactivity

Sequence | polyreactivity (PSR sort gate)
QVQLVESGGGLVQAGGSLRLSCAASGSTLPGNVMGWYRQAPGKERELVAAISWTGGSTYYADSVKGRFTISRDNAKNTVYLQMNSLKPEDTAVYYCAVDAYESPWWSDPYEYWGQGTQVTVSS | low polyreactivity
QVQLVESGGGLVQAGGSLRLICAASGSTFATYSMGWYRQAPGKERELVAAITLRGGRTYYADSVKGRFTISRDNAKNTVYLQMNSLKPEDTAVYYCAAEYYYLSFGLTWWRGFDYWGQGTHVTVSS | high polyreactivity
QVQLVESGGGLVQAGGSLRLSCAASGRTFRYNAMGWYRQAPGKERELVASIRYSSASTYYADSVKGRFTISRDNAKNTVYLQMNSLKPEDTAVYYCAASWYPVIVGYDYWGQGTQVTVSS | high polyreactivity
QVQLVESGGGLVQAGGSLRLSCAASGYNFDDNAMGWYRQAPGKERELVATNYADSVKGRFTISRDNAKNTVYLQMKSLKPEDTAVYYCAKDVWQTYTDLDHWGQGTQVTVSS | low polyreactivity
QVQLVESGGGLVQAGGSLRLSCAASGNTFNRYAMGWYRQAPGKESELVATISYRGGSTSYADSVKGRFTISRDNAKNTVYLQMNSLKPEDTAVYYCATEEGYVLYKYYSWGQGTQVTVSS | low polyreactivity
QVQLVESGGGLVQAGGSLRLSCAASGIIFPTYAMGWYRQAPGKERELVAAITSGGSTYYADSVKGRFTISRDNAKNTVYLQMNSLKPEDTAVYYCAAAYLGYGAVQPSYEGGYWGQGTQVTVSS | low polyreactivity
QVQLVESGGGLVQAGGSLRLSCAASGFTITYYVMGWYRQAPGKERELVAAISSGGRTYYADSVKGRFTISRDNAKNTVYLQMNSLKPEDTAVYYCARAISIYPGFGYWGQGTQVTVSS | high polyreactivity
QVQLVESGGGLVQAGGSLRLSCAASGRTFYYYVKGWDRQAPGKERELVAAITIRGGSTYYADSVKGRFTNSRDNAKNTVYLQMNSLKPEDTAVYYCNARGGSSTYGNYYWGQGTQVTVSS | low polyreactivity
QVQLVESGGGLVQAGGSLRLSCAASGRTFWKYAMGWYRQAPGKERELVAAITASGARTYYADSVKGRFTISRDNAKNTVYLQMNSLKPEDTAVYYCNAGSVSDRQMDYWGQGTEVTVSS | low polyreactivity
QVQLVESGGGLVQAGGSLRLSCAASGSILQRNAMGWYRQAPGKERELVAAISSSGDNTYYADSVKGRITISRDNAKNTVYLQMNSLKPEDTAVYYCATDADIYFQEYDYWGQGTQVTVSS | low polyreactivity
QVQLVESGGRLVQAGGSLRLSSAASGSTFSFYVMRWYRQAPGKERELVAAISWSSVGTYSADSVKGRFTISRDNAKNTVYLQMNSLKPEDTAVYYCAADSYRRVAKHGYWGQGTQVTVSS | high polyreactivity
QVQLVESGAGLVQAGGSLRLSCAASGFIFNRYAMGWYRQAPGKERELVAAIRGSGGSTYADSVKGRFTISRDNAKNTVYLQMNSLKPEDTAVYYCNKERPRRNGQVARYDYWGQGTQVTVSS | low polyreactivity
QVQLVESGGGLVQAGGSLRLSCAASGRTFHANAMGWYRQAPGKERELVAAISYRTGSTYYADSVKGRFTISRDNAKNTVYLQMNILKPDDTAVYYCDVDTRYGYGYWGQGTQVTVSS | high polyreactivity
QVQLVESGGGLVQAGGSLRLSCAASGIIFIGNAMGWYRQAPGKERELVAAISRRGGGTYYADSVKGRFTISRDNAKNTVYLQMNSLKPEDTAVYYCNAEITVNDDDYWGQGTQVTVSS | high polyreactivity
QVQLVESGGGFVQAGGSLRLSCAASGRIFHHNAMGGYRQAPGKVRELDATITKSGGSTYADSVKGRFTISRANAKNTVYLQMNSRKPEETAVYSCAATSVGAYGVRKYWYDYWAQGTQVTVSS | low polyreactivity
QVQLVESGGGLVQAGGSLRLSCAASGFTLDWYVMGWYRQAPGKDRELVAAISSSGGRTYYADSVKGRFTISRDNAKNTVYLQMNSLKPEDTAVYYCAARNKYGGYPYGYDYWGQGTQVTVSS | high polyreactivity
QVKLVESGGGLVQAGGSLRLSCAASGIIFYRYAMGWYRQAPGKERELVAAISGRTGRTYYADSVKGRFTISRDNAKNTVYLQMNSLKPEDTAVYYCAADYYHYRYQTRLDYWGQGTQVTVSS | high polyreactivity
QVQLVESGGGLVQAGGSLRLSCAASGIIFLSYAMGWYRQAPGKERELVAAIRSRGDSTYYADSVKGRFTISRDNAKNTVYLQMNSLKAEDTAVYYCNARQRRYPYGYWGQGTQVTVSS | high polyreactivity
QFHLVESGGGLVQAGGSLRLSCAASGSIFYPYDMGWYRQAPGKERELVATINWSSGRTNYADSVKGRFTISRDYAKNTVYLQMNSLKPEDSAVYYCNARFYYTLYYDYWGQGTQVTVSS | high polyreactivity
QVLLQESGGGLVQEGGSLRLTCAASGNIFSAGGMAWYRQATVNERELVAGIGTGTSTNYADSVKGRFTISRDNAKNTVYLQMNSLKPEDTAVYYCAAAYYSGLSHWYWGQCTQVTVSS | low polyreactivity
QDQHVESGGGLVQAGGSLRLSCADSGIIFYPNAMGWYRQAPGKERELVAAITGSGGSTYYADSVKGRFTISRDNAKYTVYIQMNSLKPEDTAVYYCATRYHRSDPSRDYWGQGTQVTVSS | low polyreactivity

Reference: the nanobody polyreactivity screen of Harvey et al. (2022)
